Here are results for one molecule from US20240400651A1 (VAL CHUM LIMITED PARTNERSHIP, published 2024).

The target of this assay is SARS-CoV-2 receptor binding domain (RBD), residues 319-591 of SARS-CoV-2 S (SARS-CoV-2, UniProt P0DTC2 319-591). The assay can be described thus: BLI, mAb on anti-human Fc probe (FIGS. 5A-E). In general terms: In BLI a coated tip is dipped into the sample, and binding shifts an interference pattern.

B1: Mab #1 (antibody, V domains shown)
VH: EVQLVESGPEVKKPGTSVKVPCKASGFTFTSSAVQWVRQARGQRLEWIGWIVVGSGNTNYAQKFQERVTITRDMSTSTAYMELSSLRSEDTAVYYCAAPSCSGGRCYDGFDIWGQGTMVTVSS
VL: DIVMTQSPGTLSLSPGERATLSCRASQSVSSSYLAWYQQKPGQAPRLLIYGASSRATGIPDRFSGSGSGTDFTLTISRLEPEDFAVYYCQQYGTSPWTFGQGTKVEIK
In the case of B1, the binding result is “binds”.
